Molecular target: T1, Kv2.1 surface clusters (Mus musculus, UniProt Q03717)
T1 construct: immunohistochemical staining of endogenous Kv2.1 channel distribution; from tissue; host or cells: cerebral cortex of C57BL/6J mice, fixed coronal brain sections
T1 sequence (Q03717 1-857): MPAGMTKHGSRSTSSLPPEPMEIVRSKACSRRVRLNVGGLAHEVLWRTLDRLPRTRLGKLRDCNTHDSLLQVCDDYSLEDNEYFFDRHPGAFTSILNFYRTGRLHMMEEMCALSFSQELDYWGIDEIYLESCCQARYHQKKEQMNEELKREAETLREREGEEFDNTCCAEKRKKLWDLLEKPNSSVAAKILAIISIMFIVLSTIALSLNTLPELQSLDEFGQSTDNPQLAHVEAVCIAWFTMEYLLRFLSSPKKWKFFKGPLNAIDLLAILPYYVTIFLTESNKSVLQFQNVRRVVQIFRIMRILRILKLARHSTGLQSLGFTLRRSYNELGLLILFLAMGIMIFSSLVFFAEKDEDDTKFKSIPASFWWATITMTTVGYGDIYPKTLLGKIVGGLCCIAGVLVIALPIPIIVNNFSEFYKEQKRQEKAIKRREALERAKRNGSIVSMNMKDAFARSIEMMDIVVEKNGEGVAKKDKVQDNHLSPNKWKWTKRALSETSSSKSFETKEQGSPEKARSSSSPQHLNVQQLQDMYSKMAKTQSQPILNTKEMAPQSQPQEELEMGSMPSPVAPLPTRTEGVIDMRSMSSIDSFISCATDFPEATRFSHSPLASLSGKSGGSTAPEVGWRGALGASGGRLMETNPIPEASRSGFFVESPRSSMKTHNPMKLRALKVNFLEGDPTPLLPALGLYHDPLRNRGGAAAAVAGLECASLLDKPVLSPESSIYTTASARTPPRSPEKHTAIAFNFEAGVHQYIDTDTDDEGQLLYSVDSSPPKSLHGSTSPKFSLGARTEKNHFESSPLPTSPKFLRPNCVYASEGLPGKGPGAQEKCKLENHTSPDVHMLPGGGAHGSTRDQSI
Assay: Immunohistochemistry of Kv2.1 clusters in mouse cerebral cortex after intraperitoneal peptide injection
Assay type: in vivo
Details: 6 nmol/g intraperitoneal, sacrificed 2 hours post-injection, mean±SEM (FIG. 5D)
Experimental: Eight-week-old C57BL/6J male mice (28-30 g; Jackson, Bar Harbor, Me.) were administered IP injections of 6 nmol/g TAT-DP-2 (n=3) or TAT-Sc-2 peptide (n=3). Two hours post-injection, mice were anesthetized with 3% isoflurane (Henry Schein Animal Health, Dublin, Ohio) in a 3:1 […] gas mixture. Fifty mL of ice-cold 1× sterile PBS was transcardially perfused (5-10 mL/min), immediately followed by 50 mL of 4% sterile paraformaldehyde (PFA; 5-10 mL/min). Brains were removed and placed in 4% PFA at 4° C. for 24 hours, then transferred to 30% sucrose in 1× PBS at 4° C. for 48-72 hours. […]
To analyze Kv2.1 distribution in live primary cortical neurons, cells were transfected with both a tdTomato construct and a GFP-tagged Kv2.1 construct (O'Connell, et al., J Neurosci. 26: 9609-9618, 2006) and imaged on a Nikon A1+ confocal microscope (Nikon, Tokyo, Japan). […] For live images of transfected neurons, object count parameters were customized to define a Kv2.1 cluster as an area of high intensity GFP fluorescence (compared to background), measuring 0.05 μm^2 or larger (Schulien et al., J Physiol (Lond). 594: 2647-2659, 2016). Kv2.1 cluster density was calculated by normalizing the number of Kv2.1 clusters counted to the somatic area of each neuron (#Kv2.1 clusters/μm^2). […]

Sequence	mean Kv2.1 cluster density in superficial cortex
YGRKKRRQRRRDFSSIST [TAT-Sc-2, TAT-linked scramble control peptide]	565.70±50.72 #Kv2.1 clusters/image field
YGRKKRRQRRRSIDSFTS [TAT-DP-2, TAT-linked declustering peptide 2]	301.10±39.60 #Kv2.1 clusters/image field
